The data set concerns the target T1, HutP (V51I) (Bacillus subtilis, UniProt P10943 1-148, V51I).
T1 sequence: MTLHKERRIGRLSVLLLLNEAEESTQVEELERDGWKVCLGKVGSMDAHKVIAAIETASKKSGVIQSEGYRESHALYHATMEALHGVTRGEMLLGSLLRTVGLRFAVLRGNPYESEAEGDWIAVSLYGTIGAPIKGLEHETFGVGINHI
Nature of the data set: EMSA. (In general: A gel shift assay detects complexes by their altered migration in electrophoresis.)

B1: 21mer hut RNA (minimal RNA element) (ssRNA)
RNA: CAUAGAUCUUAGACGAUAGGG
Consider B1, for which the binding result is reported as “binds”.

Source of the values: publication PMC1236978.
